Measured values from article PMC8067440 (Journal of Personalized Medicine, 2021).
Substitutions are numbered along the chain they refer to. Names may count otherwise. Blank lines part the entries; values can stand above or below the molecule they belong to.

Columns and labels:
[1] = target: artificial monomeric form of alanine:glyoxylate aminotransferase on the major allele (MMa), R118A/F238S/F240S, recombinant purified (human) (UniProt P21549); test: SEC; apo-form; Superdex 200 10/300 GL, room temperature, KP 0.1 M, pH 7.4; samples at different concentrations incubated overnight at 25 °C; percent dimer from peak areas fitted; dimer to monomers
[2] = target: artificial monomeric form of alanine:glyoxylate aminotransferase on the major allele (MMa), R118A/F238S/F240S, recombinant purified (human) (UniProt P21549); test: SEC; holo-form, in the presence of saturating PLP; Superdex 200 10/300 GL, room temperature, KP 0.1 M, pH 7.4; samples at different concentrations incubated overnight at 25 °C; percent dimer from peak areas fitted; dimer to monomers
[3] = target: T1, DMa-FlAsH (row MMa-FlAsH) (Homo sapiens, UniProt P21549, R118A/F238S/F240S/INS254CCPGCC); test: CD signal at […] nm, tight-binding quadratic fit; conditions: 10 μM apoenzyme, 24 h incubation, PLP 1–300 μM
T1 construct: gene AGXT; full length with CCPGCC FlAsH motif inserted in a surface loop, expressed in E. coli BL21(DE3), purified on HisPrep FF (His-tagged)
T1 sequence (P21549 with tags, fused parts or gaps R118A/F238S/F240S/INS254CCPGCC): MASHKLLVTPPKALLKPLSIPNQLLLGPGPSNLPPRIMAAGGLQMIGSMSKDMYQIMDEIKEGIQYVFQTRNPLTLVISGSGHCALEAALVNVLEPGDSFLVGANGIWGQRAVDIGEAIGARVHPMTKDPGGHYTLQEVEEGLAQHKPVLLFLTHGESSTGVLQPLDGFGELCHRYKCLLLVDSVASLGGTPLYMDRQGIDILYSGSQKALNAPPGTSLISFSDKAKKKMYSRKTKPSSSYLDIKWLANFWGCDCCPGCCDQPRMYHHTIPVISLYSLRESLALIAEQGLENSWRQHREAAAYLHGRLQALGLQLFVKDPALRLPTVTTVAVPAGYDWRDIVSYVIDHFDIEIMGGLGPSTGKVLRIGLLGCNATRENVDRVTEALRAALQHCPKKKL

[4] = target: T2, AGT (DMa, major allele) (Homo sapiens, UniProt P21549); test: not described here for DMa; format: binding; conditions: read-out: KD(PLP)
T2 construct: gene AGXT; full length, expressed in E. coli BL21(DE3), purified on HisPrep FF (His-tagged, removal not mentioned)
T2 sequence (P21549 1-392): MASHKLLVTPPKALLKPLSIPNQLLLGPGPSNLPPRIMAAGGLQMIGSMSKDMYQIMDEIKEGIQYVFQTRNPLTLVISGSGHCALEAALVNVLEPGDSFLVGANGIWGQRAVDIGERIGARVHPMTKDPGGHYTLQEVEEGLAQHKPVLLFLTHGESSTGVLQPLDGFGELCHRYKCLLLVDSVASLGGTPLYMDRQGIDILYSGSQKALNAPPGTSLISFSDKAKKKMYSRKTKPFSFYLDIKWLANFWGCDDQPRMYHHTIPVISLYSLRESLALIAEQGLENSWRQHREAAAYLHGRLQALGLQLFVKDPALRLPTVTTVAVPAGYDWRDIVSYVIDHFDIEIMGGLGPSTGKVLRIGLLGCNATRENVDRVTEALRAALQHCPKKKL
Source text: not described here for DMa on AGT (DMa, major allele; rows DMi, MMa, MMi)

[5] = target: T3, DMa-FlAsH (row MMa-FlAsH) (Homo sapiens, UniProt P21549, INS254CCPGCC); test: intrinsic fluorescence quenching of apoenzyme, tight-binding quadratic fit; conditions: 0.1 μM apoenzyme, 24 h incubation, PLP 0.01–10 μM
T3 construct: gene AGXT; full length with CCPGCC FlAsH motif inserted in a surface loop, expressed in E. coli BL21(DE3), purified on HisPrep FF (His-tagged)
T3 sequence (P21549 with tags, fused parts or gaps INS254CCPGCC): T1 sequence (P21549 with tags, fused parts or gaps R118A/F238S/F240S/INS254CCPGCC) with A118R, S238F, S240F
Description: intrinsic fluorescence quenching of apoenzyme, tight-binding quadratic fit on DMa-FlAsH (row MMa-FlAsH) | The KD(PLP) of DMa-FlAsH was calculated by measuring the intrinsic fluorescence quenching

[6] = target: T4, AGT (DMa, major allele) (Homo sapiens, UniProt P21549, F238S/F240S/R118A); test: CD signal at […] nm, tight-binding quadratic fit; conditions: read-out: KD(PLP)
T4 construct: gene AGXT; full length, expressed in E. coli BL21(DE3), purified on HisPrep FF (His-tagged, removal not mentioned)
T4 sequence (P21549 1-392 R118A/F238S/F240S): T2 sequence (P21549 1-392) with R118A, F238S, F240S

[7] = target: T5, AGT (DMa, major allele) (Homo sapiens, UniProt P21549, F238S/F240S/I340M/P11L/R118A); test: not described in detail here for MMi; format: binding; conditions: read-out: KD(PLP)
T5 construct: gene AGXT; full length, expressed in E. coli BL21(DE3), purified on HisPrep FF (His-tagged, removal not mentioned)
T5 sequence (P21549 1-392 P11L/R118A/F238S/F240S/I340M): T2 sequence (P21549 1-392) with P11L, R118A, F238S, F240S, I340M
Source text: not described in detail here for MMi on AGT (DMa, major allele; rows DMi, MMa, MMi)

[8] = target: T6, AGT (DMa, major allele) (Homo sapiens, UniProt P21549, I340M/P11L); test: not described here for DMi; format: binding; conditions: read-out: KD(PLP)
T6 construct: gene AGXT; full length, expressed in E. coli BL21(DE3), purified on HisPrep FF (His-tagged, removal not mentioned)
T6 sequence (P21549 1-392 P11L/I340M): T2 sequence (P21549 1-392) with P11L, I340M
Source text: not described here for DMi on AGT (DMa, major allele; rows DMi, MMa, MMi)

[9] = target: the molecule itself; test: SEC; apo-form; Superdex 200 10/300 GL, room temperature, KP 0.1 M, pH 7.4; samples at different concentrations incubated overnight at 25 °C; percent dimer from peak areas fitted; dimer to monomers
[10] = target: the molecule itself; test: SEC; holo-form, in the presence of saturating PLP; Superdex 200 10/300 GL, room temperature, KP 0.1 M, pH 7.4; samples at different concentrations incubated overnight at 25 °C; percent dimer from peak areas fitted; dimer to monomers

Kd [1]: 4.1 µM
Kd [2]: 1500 nM
Molecule: artificial monomeric form of alanine:glyoxylate aminotransferase on the major allele (MMa), R118A/F238S/F240S, recombinant purified (from UniProt P21549 1-392) (enzyme)

Kd [3]: 7.2 ± 1.1 µM
Kd [4]: 270 ± 30 nM
Kd [5]: 250 ± 30 nM
Kd [6]: 3.2 ± 0.6 µM
Kd [7]: 4.4 ± 0.5 µM
Kd [8]: 260 ± 20 nM
Molecule: Cc1ncc(COP(=O)(O)O)c(C=O)c1O [PLP]

B1: alanine:glyoxylate aminotransferase, native dimeric form encoded by the major allele (DMa), recombinant purified (enzyme, human, UniProt P21549 1-392, looked up)
chain: T2 sequence (P21549 1-392)
notes: human alanine:glyoxylate aminotransferase (AGT), major allele (Pro11, Ile340); bacterial construct pAGT-Ma; Homodimer in its native state; Used as apo-form and as holo-form (with PLP); also called AGT; AGT-Ma; source: E. coli BL21(DE3), purified (HisPrep FF)
Kd [9]: < 0.3 µM
Kd [10]: < 0.3 µM

B2: alanine:glyoxylate aminotransferase, native dimeric form encoded by the minor allele (DMi), recombinant purified (enzyme, human, UniProt P21549 1-392, looked up)
chain: T2 sequence (P21549 1-392) with P11L, I340M
notes: human alanine:glyoxylate aminotransferase (AGT), minor allele (Pro11Leu, Ile340Met); bacterial construct pAGT-Mi; Homodimer in its native state; Used as apo-form and as holo-form (with PLP); also called AGT-Mi; source: E. coli BL21(DE3), purified (HisPrep FF)
Kd [9]: < 0.3 µM
Kd [10]: < 0.3 µM

B3: artificial monomeric form of alanine:glyoxylate aminotransferase on the minor allele (MMi), R118A/F238S/F240S, recombinant purified (enzyme, human, UniProt P21549 1-392, looked up)
chain: T2 sequence (P21549 1-392) with P11L, R118A, F238S, F240S, I340M
notes: human alanine:glyoxylate aminotransferase (AGT), minor allele (Pro11Leu, Ile340Met), with the interfacial mutations R118A/F238S/F240S on pAGT-Mi; Used as apo-form and as holo-form (with PLP); source: E. coli BL21(DE3), purified (HisPrep FF)
Kd [9]: 80 ± 1 µM
Kd [10]: 9.4 ± 0.5 µM
